Laboratory results as given in the supplement of paper PMC11780869.

Test system: Bacillus subtilis
Experiment: cleaved RNA product abundance (RNA/gDNA barcode ratio) relative to median wild-type variant (ratio to wild type); higher = more accumulation of the downstream cleavage product
Procedure, shortened: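 In LB at 37°C, B. subtilis cultures went from OD600 0.0003 to 0.3. Their chromosomes held barcoded reporter mRNAs, truncated aprE or tetM, with RNase Y cleavage-site windows mutagenized via oligos at a 9% error rate. Cleaved RNA, chosen by gel, was reverse transcribed and barcode-sequenced alongside genomic DNA barcodes with UMI collapsing, giving a per-construct RNA:gDNA ratio scaled to the median construct with the unmutated site. This scaled ratio is termed cleaved product abundance.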

[1] = experiment (reporter, strain, medium): exp 2b: truncated aprE reporter, strain BJT200, cleavage site: cggR-gapA (positions -7 to +36 mutated)
[2] = experiment (reporter, strain, medium): exp 4a: truncated aprE reporter, strain BJT201 with 2% xylose (RNase J1 expressed), cleavage site: cggR-gapA (positions -7 to +36 mutated)
[3] = experiment (reporter, strain, medium): exp 8a: truncated aprE reporter, strain BJT201 with 2% xylose (RNase J1 expressed), cleavage site: glnRA (positions -5 to +31 mutated)
[4] = experiment (reporter, strain, medium): exp 6: tetM reporter, strain 168, cleavage site: cggR-gapA (positions -7 to +36 mutated)

Sequence | cleaved RNA product abundance [1] | cleaved RNA product abundance [2] | other results
ACAGACGAAGGAGCCGCAAAGAAGTTATTAAGGGATCAATAATCACTCAATATAAATATCTCTCACTTATTTAAA | 0.0917 | 0.0833 | –
CGACATGTCCCGCTTCTTTCATTAATCCGTTAACAACTGTTTTGCTAAATACATTTACCTTTTAAGAGGAGGAAT | – | – | cleaved RNA product abundance [3]: 0.202
ACAGACGAAGGAGCCGCAAAGAGGTTATTAAGAGATGAATAATCCCTCAATATAAATATCTCTCACTTATTTAAA | – | 0.126 | –
ACAGACGAAGGAGCCGCAAAGAAGCTATTAAGGGATGAATAATCCCTCAATATAAATATCTCTCACTTATTTAAA | 0.571 | 0.615 | cleaved RNA product abundance [4]: 0.588
ACAGACGAAGGAGCCGCAAAGAAGTTATTAAGGAACGAATAATCCCTCAATATAAATATCTCTCACTTATTTAAA | 0.0842 | 0.073 | –
ACAGACGAAGGAGCCGCAAAGATGTTATTAACGGATGAATAATCCCTCAATATAAATATCTCTCACTTATTTAAA | 0.104 | 0.151 | –
ACAGACGAAGGAGCCGCAAAGAAGTTATTCAGGGATGAATTATCCCTCAATATAAATATCTCTCACTTATTTAAA | 0.56 | 0.629 | –
ACAGACGAAGGAGCCGCAAAGAAGTTATTAAGGAATGAAAAATCCCTCAATATAAATATCTCTCACTTATTTAAA | 0.0892 | 0.137 | –
ACAGACGAAGGAGCCGCAAAGAAGTTATGAAGGGATGAATAATCCGTCAATATAAATATCTCTCACTTATTTAAA | – | 0.222 | –
ACAGACGAAGGAGCCGCAAAGAAGTTATTAACGGATGAATAATCCCTCCATATAAATATCTCTCACTTATTTAAA | – | 0.129 | –
ACAGACGAAGGAGCCGCAAAGAAGTTATTAATCGATGAATAATCCCTCAATATAAATATCTCTCACTTATTTAAA | – | 0.164 | –
ACAGACGAAGGAGCCGCAAAGAAGTTTATAAGGGATGAATAATCCCTCAATATAAATATCTCTCACTTATTTAAA | – | 0.438 | –
CGACATGTCCCGCTTCTTTCATTATTCCTTTAGCAACTGTTTTGATATATACATTTACCTTTTAAGAGGAGGAAT | – | – | cleaved RNA product abundance [3]: 0.465
ACAGACGAAGGAGCCGCAAAGAAGCTATTAAGGGATGAACAATCCCTCAATATAAATATCTCTCACTTATTTAAA | – | 0.568 | –
ACAGACGAAGGAGCCGCAAAGAAGTTATTAAGGGATTAATAATCCCTCAATATAAATATATCTCACTTATTTAAA | – | 1.23 | –
CGACATGTCCCGCTTCTTTCATTATTCCGTTAGCAACTGTTTTGCTATATACATTAACATTTTAAGAGGAGGAAT | – | – | cleaved RNA product abundance [3]: 2.49
ACAGACGAAGGAGCCGCAAAGAAGTTATTAAGTGATGAATAATCCCTCAATATAAACATCTCTCACTTATTTAAA | – | 0.116 | –
ACAGACGAAGGAGCCGCAAAGAAGTTATTAAGTGATGAATAGTCCCTCAATATAAATATCTCTCACTTATTTAAA | – | 0.14 | –
ACAGACGAAGGAGCCGCGAAGAAGTTTTTAAGGGATGAATAATCCCTCAATATAAATATCTCTCACTTATTTAAA | – | 0.418 | –
ACAGACGAAGGAGCCGCAAAGAACTTATTAAGGCATGAATAATCCCTCAATATAAATATCTCTCACTTATTTAAA | 0.114 | 0.099 | –

Sequence | cleaved RNA product abundance [1] | cleaved RNA product abundance [2] | other results
ACAGACGAAGGAGCCGCAAAGAAGTCATTAAGGTATGAATAATCCCTCAATATAAATATCTCTCACTTATTTAAA | 0.0941 | – | –
ACAGACGAAGGAGCCGCAAAAAAGTTATTAGGGGATGAATAATCCCTCAATATAAATATCTCTCACTTATTTAAA | – | 0.608 | –
ACAGACGAAGGAGCCGCAAGGAAGTTATTAAGGGATGATTAATCCCTCAATATAAATATCTCTCACTTATTTAAA | – | 0.959 | –
ACAGACGAAGGAGCCGCAAAGAAGTTATTAAGGGATGAAAAATCCCTCAATATAAATAGCTCTCACTTATTTAAA | – | 0.554 | –
ACAGACGAAGGAGCCGCAAAAAAGTTATTAAGGGATGAATAATCCCTCAATATAAACATCTCTCACTTATTTAAA | – | 0.766 | –
ACAGACGAAGGAGCCGCAAAGAAGTTATTAAAGGATGAATAATCCCTCAATATAAATAACTCTCACTTATTTAAA | 0.157 | 0.229 | –
ACAGACGAAGGAGCCGCAAAGAAGTTAATAAGGGATGAATAATCCCTCAATATAAACATCTCTCACTTATTTAAA | – | 0.338 | –
ACAGACGAAGGAGCCGCAAAGAAGTTATTAAGTGATGAATAATCCCTAAATATAAATATCTCTCACTTATTTAAA | 0.143 | 0.146 | –
ACAGACGAAGGAGCCGCAAAGAAGTTATTAAGGGATGAATAATCTCTGAATATAAATATCTCTCACTTATTTAAA | – | 0.634 | –
ACAGACGAAGGAGCCGCAAAGAAGTTATTAAGTGATGAATAATCCTTCAATATAAATATCTCTCACTTATTTAAA | 0.112 | 0.145 | –
ACAGACGAAGGAGCCGCAAAGAAGTTATTAAGGAATCAATAATCCCTCAATATAAATATCTCTCACTTATTTAAA | 0.0834 | 0.109 | –
ACAGACGAAGGAGCCGCAAAAGAAGTTATTAAGGGATGAATAATCCCTCAATATAAATATCTCTCACTTATTTAA | – | 1.06 | –
CGACATGTCCCGCTTCTTTCATTAATCCGTTAGCAACTGTTTTGTTATATACATATACCTTTTAAGAGGAGGAAT | – | – | cleaved RNA product abundance [3]: 0.573
ACAGACGAAGGAGCCGCAAAGAAGTTATTAAGGGATGAATAATCCCTCAATATAAATACCTCTCACTTATTTAAA | 0.69 | 0.56 | cleaved RNA product abundance [4]: 0.593
ACAGACGAAGGAGCCGCACAGAAGTTATTAAGGTATGAATAATCCCTCAATATAAATATCTCTCACTTATTTAAA | 0.102 | 0.198 | –
ACAGACGAAGGAGCCGCAAAGAAGTTATTAAGGGATGAATAATCCGTCAATATCAATATCTCTCACTTATTTAAA | – | 0.15 | –
CGACATGTCCCGCTTCTTTCATTAATCCGTTAGCAATTGTTTTGCTAAATACATTTACCTTTTAAGAGGAGGAAT | – | – | cleaved RNA product abundance [3]: 0.342
ACAGACGAAGGAGCCGCAAAGAAGTTATTAAGGGTTGTATAATCCCTCAATATAAATATCTCTCACTTATTTAAA | – | 0.309 | –
CGACATGTCCCGCTTCTTTCATTAATCCGTTAGCTACTGTTTTGCAATATACATTTACCTTTTAAGAGGAGGAAT | – | – | cleaved RNA product abundance [3]: 0.187
ACAGACGAAGGAGCCGCAAAGAAAATATTAAGGGATGAATAATCCCTCAATATAAATATCTCTCACTTATTTAAA | – | 0.697 | –

Sequence | cleaved RNA product abundance [1] | cleaved RNA product abundance [2] | other results
CGACATGTCCCGCTTCTTTCATTATTCCGTTAGCAACTGTTTTGCTATAAACATTTACCTTTTAAGAGGAGGAAT | – | – | cleaved RNA product abundance [3]: 0.851
ACAGACGAAGGAGCCGCAAAGAATTCATTAAGGGATGAATAATCCCTCAATATAAATATCTCTCACTTATTTAAA | 0.196 | 0.23 | –
ACAGACGAAGGAGCCGCAAAGAAGTTATTTATGGATGAATAATCCCTCAATATAAATATCTCTCACTTATTTAAA | – | 0.165 | –
ACAGACGAAGGAGCCGCAAAGACGTTATTAATGGATGAATAATCCTTCAATATAAATATCTCTCACTTATTTAAA | – | 0.23 | –
ACAGACGAAGGAGCCGCAAAGAAGTTATTAGGGTATGAATAATCCCTCAATATAAATATCTCTCACTTATTTAAA | – | 0.361 | –
ACAGACGAAGGAGCCGCAAAGAAGTTATTAAGGGATGAATAATCCGTCAATATAATTATCTCTCACTTATTTAAA | – | 0.119 | –
ACAGACGAAGGAGCCGCAAAGAAGTTATTAAAGGATGAAAAATCCCTCAATATAAATATCTCTCACTTATTTAAA | 0.104 | 0.183 | –
ACAGACGAAGGAGCCGCAATGAAGTTATTAAGGGATGAATAATGCCTCAATATAAATATCTCTCACTTATTTAAA | 0.122 | – | –
ACAGACGAAGGAGCCGCAACGAAGTTATTAAGGAATGAATAATCCCTCAATATAAATATCTCTCACTTATTTAAA | 0.116 | 0.126 | –
ACAGACGAAGGAGCCGCAAAGCAGTTATTAAGGGATGAATAATCCTTCAATATAAATATCTCTCACTTATTTAAA | – | 0.526 | –
CGACATGTCCCGCTTCTTTCATTAATTCGTTAGCAACTGTATTGCAATATACATTTACCTTTTAAGAGGAGGAAT | – | – | cleaved RNA product abundance [3]: 0.329
ACAGACGAAGGAGCCGCAAAGAAGTTATTAATGGATGACTAATCCCTCAATATAAATATCTCTCACTTATTTAAA | 0.0938 | 0.114 | –
ACAGACGAAGGAGCCGCAAAGAAGTTAATAAGGGATGAATAATCCCTGAATATAAATATCTCTCACTTATTTAAA | – | 0.533 | –
ACAGACGAAGGAGCCGCAAAGAAGTTATTAAGGGATGAATAATCCCGCAATATATATATCTCTCACTTATTTAAA | – | 0.139 | –
CGACATGTCCCGCTTCTTTCATTAATCCGTTAGCAACTGTTTTGCTATATACATTTAACTTTTAAGAGGAGGAAT | – | – | cleaved RNA product abundance [3]: 1.24
ACAGACGAAGGAGCCGCAAAGAAGTTATTAAGGGATCAATGATCCCTCAATATAAATATCTCTCACTTATTTAAA | – | 1.15 | –
ACAGACGAAGGAGCCGCAAAGAAGTTAATAAGGGATGAATAATCCCTCAATATAAATGTCTCTCACTTATTTAAA | – | 0.303 | –
CGACATGTCCCGCTTCTTTCATTATACCGTTAGCAACTGTTTTGCTATATACATTTACCTTTTAAGAGGAGGAAT | – | – | cleaved RNA product abundance [3]: 2.04
ACAGACGAAGGAGCCGCAAAGAATTTATTAAGGGATGAATAATCCCCCAATATAAATATCTCTCACTTATTTAAA | 0.189 | 0.202 | –
